According to the supplement of paper PMC11865577:

Tests used:
Assay in all cases: pull-down binding Z-score (relative to library population); higher = stronger binding
[1] = tested on: TO-N3-2 (biotin conjugate); conditions: RNA library: Library-2
Procedure, shortened: (§1)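 The RNA library, end-labelled with Cy5 or Cy3, was heat-folded in phosphate/NaCl/KCl buffer, and 1 μg was incubated at 25 °C for 60 min with streptavidin beads carrying 100 pmol of biotin-conjugated small molecule. Hot SDS released the bound RNA, which was then hybridised to a DNA barcode microarray for 20 h at 55.5 °C. For scoring binding, signal from beads alone was subtracted, replicate barcoded probes were averaged after discarding the highest and lowest, and each value was turned into a Z-score from the library mean and standard deviation.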

[2] = tested on: TO-3-N3 (biotin conjugate); conditions: RNA library: Library-2
Procedure, shortened: as §1

[3] = tested on: G-clamp-N3 (biotin conjugate); conditions: RNA library: Library-1 (pre-miRNA loops + repeats)
Procedure, shortened: as §1

TO-N3 (biotin conjugate) = conditions: RNA library: Library-2
Procedure, shortened: as §1

[4] = tested on: TO-3-N3-2 (biotin conjugate); conditions: RNA library: Library-2
Procedure, shortened: as §1

CCCAUAUGGAUUACUUUGCUAUGGA [hsa-mir-206]
pull-down binding Z-score [1]: 0.0791
pull-down binding Z-score [2]: 0.0156
pull-down binding Z-score [3]: -0.287
pull-down binding Z-score (TO-N3 (biotin conjugate)): 0.036
pull-down binding Z-score [4]: -0.188

CCCAUUUAAAAUAUGGAA [hsa-mir-548ai]
pull-down binding Z-score [1]: -0.0504
pull-down binding Z-score [2]: 0.535
pull-down binding Z-score [3]: -2.02
pull-down binding Z-score (TO-N3 (biotin conjugate)): 0.322
pull-down binding Z-score [4]: -0.0892

CCCCCAAUUAAAGUAGAUUGGGGG [hsa-mir-3153]
pull-down binding Z-score [1]: -1.29
pull-down binding Z-score [2]: -0.415
pull-down binding Z-score [3]: 0.917
pull-down binding Z-score (TO-N3 (biotin conjugate)): -0.725
pull-down binding Z-score [4]: -0.696

CCCCGCGCGCGGACAGACACACGGACAAGUCCCGCCAGGGG [hsa-mir-4492]
pull-down binding Z-score [1]: 4.65
pull-down binding Z-score [2]: -0.131
pull-down binding Z-score [3]: -0.362
pull-down binding Z-score (TO-N3 (biotin conjugate)): 1.59
pull-down binding Z-score [4]: -0.38

CCCGAGCUGGGCAGCAUGAAGGGCCUCGGG [hsa-mir-486-2]
pull-down binding Z-score [1]: 1.49
pull-down binding Z-score [2]: 1.74
pull-down binding Z-score [3]: 3.94
pull-down binding Z-score (TO-N3 (biotin conjugate)): 1.64
pull-down binding Z-score [4]: 0.949

CCCGAGGCCCUUCAUGCUGCCCAGCUCGGG [hsa-mir-486-1]
pull-down binding Z-score [1]: 1.19
pull-down binding Z-score [2]: 0.473
pull-down binding Z-score [3]: 0.819
pull-down binding Z-score (TO-N3 (biotin conjugate)): 0.727
pull-down binding Z-score [4]: 0.923

CCCGGAUACCUCAGAAAUUCGG [hsa-mir-760]
pull-down binding Z-score [1]: 0.267
pull-down binding Z-score [2]: -0.07
pull-down binding Z-score [3]: -0.822
pull-down binding Z-score (TO-N3 (biotin conjugate)): -0.0213
pull-down binding Z-score [4]: -0.461

CCCGGCCGGCAGCCCCCGGCCUUAAAGCGCGGG [hsa-mir-4741]
pull-down binding Z-score [1]: 2.16
pull-down binding Z-score [2]: -0.112
pull-down binding Z-score [3]: 0.653
pull-down binding Z-score (TO-N3 (biotin conjugate)): 0.228
pull-down binding Z-score [4]: 0.194

CCCGUAGGACACCGAGGCUUAUGAAUAGGA [hsa-mir-6081]
pull-down binding Z-score [1]: 0.62
pull-down binding Z-score [2]: -0.16
pull-down binding Z-score [3]: -0.941
pull-down binding Z-score (TO-N3 (biotin conjugate)): 0.345
pull-down binding Z-score [4]: 0.141

CCCUAGGACUUACUUGUGCAGGG [hsa-mir-4253]
pull-down binding Z-score [1]: -0.69
pull-down binding Z-score [2]: -0.256
pull-down binding Z-score [3]: -0.421
pull-down binding Z-score (TO-N3 (biotin conjugate)): -0.303
pull-down binding Z-score [4]: -0.403

CCCUCAUAUGGCAGUUGGCGAGGGCCCAGUGAG [hsa-mir-6769a]
pull-down binding Z-score [1]: 1.53
pull-down binding Z-score [2]: 0.974
pull-down binding Z-score [3]: 2.45
pull-down binding Z-score (TO-N3 (biotin conjugate)): 1.33
pull-down binding Z-score [4]: 0.582

CCCUGCACUCAGUUUGCACAGGG [hsa-mir-4511]
pull-down binding Z-score [1]: 0.0492
pull-down binding Z-score [2]: -0.159
pull-down binding Z-score [3]: 0.204
pull-down binding Z-score (TO-N3 (biotin conjugate)): -0.122
pull-down binding Z-score [4]: -0.184

CCCUGCCCAGUGCAGGAG [hsa-mir-6069]
pull-down binding Z-score [1]: -0.914
pull-down binding Z-score [2]: -0.42
pull-down binding Z-score [3]: 0.386
pull-down binding Z-score (TO-N3 (biotin conjugate)): -0.817
pull-down binding Z-score [4]: -0.478

CCCUGGGGAGCUGCUGCAGGCAGCAGGUGGGCGGGACGCCAGCAGGCUGUCUAGCUGUUCCCAUGAUGG [hsa-mir-6843]
pull-down binding Z-score [1]: 2.24
pull-down binding Z-score [2]: 0.919
pull-down binding Z-score [3]: 2.14
pull-down binding Z-score (TO-N3 (biotin conjugate)): 1.81
pull-down binding Z-score [4]: 0.49

CCCUGGUCAGACUCUCCGGGG [hsa-mir-4675]
pull-down binding Z-score [1]: -0.561
pull-down binding Z-score [2]: -0.139
pull-down binding Z-score [3]: -0.63
pull-down binding Z-score (TO-N3 (biotin conjugate)): -0.368
pull-down binding Z-score [4]: -0.287

CCCUUGUCUUCCCAGAG [hsa-mir-4739]
pull-down binding Z-score [1]: -0.0951
pull-down binding Z-score [2]: -0.28
pull-down binding Z-score [3]: -1.22
pull-down binding Z-score (TO-N3 (biotin conjugate)): -0.358
pull-down binding Z-score [4]: -0.41

CCGACUCGGGCUCUGGAGCAGUC [hsa-mir-152]
pull-down binding Z-score [1]: 0.692
pull-down binding Z-score [2]: 0.836
pull-down binding Z-score [3]: 0.748
pull-down binding Z-score (TO-N3 (biotin conjugate)): 1.09
pull-down binding Z-score [4]: 0.274

CCGACUCUGAGUAUGAUAGAAGUC [hsa-mir-148a]
pull-down binding Z-score [1]: 2.33
pull-down binding Z-score [2]: 0.905
pull-down binding Z-score [3]: -1.56
pull-down binding Z-score (TO-N3 (biotin conjugate)): 1.48
pull-down binding Z-score [4]: 0.613

CCGAGUGAUCUCGGU [hsa-mir-8071-1_8071-2]
pull-down binding Z-score [1]: -0.0845
pull-down binding Z-score [2]: -0.581
pull-down binding Z-score [3]: -1.48
pull-down binding Z-score (TO-N3 (biotin conjugate)): -0.685
pull-down binding Z-score [4]: -0.324

CCGCCCUCGUGUCUGUGGCGGUGG [hsa-mir-663a]
pull-down binding Z-score [1]: 0.679
pull-down binding Z-score [2]: 0.171
pull-down binding Z-score [3]: 0.239
pull-down binding Z-score (TO-N3 (biotin conjugate)): 0.334
pull-down binding Z-score [4]: -0.231

CCGCCUUUGUGCUGUCCUUGGAGGGAGG [hsa-mir-1910]
pull-down binding Z-score [1]: 0.495
pull-down binding Z-score [2]: 0.209
pull-down binding Z-score [3]: 1.1
pull-down binding Z-score (TO-N3 (biotin conjugate)): 0.226
pull-down binding Z-score [4]: -0.0292

CCGCUAGUGGAAGAAGAUGGCGG [hsa-mir-6125]
pull-down binding Z-score [1]: 1.59
pull-down binding Z-score [2]: 0.322
pull-down binding Z-score [3]: 1.5
pull-down binding Z-score (TO-N3 (biotin conjugate)): 0.547
pull-down binding Z-score [4]: 0.669

CCGGCCCGUUAGUUGCCCGGGCCCG [hsa-mir-3181]
pull-down binding Z-score [1]: 0.914
pull-down binding Z-score [2]: -0.57
pull-down binding Z-score [3]: -0.29
pull-down binding Z-score (TO-N3 (biotin conjugate)): -0.422
pull-down binding Z-score [4]: -0.397

CCGGGCGCUGCUCUGACCCCUCGU [hsa-mir-187]
pull-down binding Z-score [1]: 1.39
pull-down binding Z-score [2]: 0.166
pull-down binding Z-score [3]: 0.00395
pull-down binding Z-score (TO-N3 (biotin conjugate)): 0.875
pull-down binding Z-score [4]: 0.116

CCGGGGCAGGAGACCCCGCG [hsa-mir-1470]
pull-down binding Z-score [1]: 0.265
pull-down binding Z-score [2]: -0.389
pull-down binding Z-score [3]: -0.305
pull-down binding Z-score (TO-N3 (biotin conjugate)): -0.351
pull-down binding Z-score [4]: -0.34

CCGGGUGCCCACAAGACUGUG [hsa-mir-3138]
pull-down binding Z-score [1]: 2.06
pull-down binding Z-score [2]: 0.49
pull-down binding Z-score [3]: -0.253
pull-down binding Z-score (TO-N3 (biotin conjugate)): 1.01
pull-down binding Z-score [4]: 0.469

CCGUAUAUAUAUAUAUAUAUAUAUAGAUAUCUCCAUAUAUAUGG [hsa-mir-620]
pull-down binding Z-score [1]: -0.872
pull-down binding Z-score [2]: -0.865
pull-down binding Z-score [3]: 1.15
pull-down binding Z-score (TO-N3 (biotin conjugate)): -1.16
pull-down binding Z-score [4]: -0.53

CCGUGCCCUGGCCACUCAUUCGG [hsa-mir-6741]
pull-down binding Z-score [1]: 1.1
pull-down binding Z-score [2]: 0.294
pull-down binding Z-score [3]: -0.0927
pull-down binding Z-score (TO-N3 (biotin conjugate)): 0.45
pull-down binding Z-score [4]: 0.133

CCGUUUAAAAAGGCAUCUCCAAG [hsa-mir-608]
pull-down binding Z-score [1]: 0.0602
pull-down binding Z-score [2]: 0.0622
pull-down binding Z-score [3]: -1.45
pull-down binding Z-score (TO-N3 (biotin conjugate)): 0.0887
pull-down binding Z-score [4]: 0.433

CCUAGAGUCCAUUCUUUACUCUAGG [hsa-mir-4779]
pull-down binding Z-score [1]: -1.28
pull-down binding Z-score [2]: -0.699
pull-down binding Z-score [3]: -0.507
pull-down binding Z-score (TO-N3 (biotin conjugate)): -1.18
pull-down binding Z-score [4]: -0.586

CCUAGUGGCUAGCCCUGGGUCUAGCAGCCUAUGGCAGUGUCUGGUAAACACUGGUGGAGUCCUGGG [hsa-mir-6745]
pull-down binding Z-score [1]: 1.22
pull-down binding Z-score [2]: -0.189
pull-down binding Z-score [3]: 0.335
pull-down binding Z-score (TO-N3 (biotin conjugate)): 0.336
pull-down binding Z-score [4]: -0.307

CCUCAAUCACUUGCCAGAGAGAUUGG [hsa-mir-1200]
pull-down binding Z-score [1]: -0.136
pull-down binding Z-score [2]: 0.0255
pull-down binding Z-score [3]: -1.09
pull-down binding Z-score (TO-N3 (biotin conjugate)): -0.196
pull-down binding Z-score [4]: -0.188

CCUCACCUGCUGAGAG [hsa-mir-3670-3_3670-2_3670-1_3670-4]
pull-down binding Z-score [1]: 0.19
pull-down binding Z-score [2]: -0.258
pull-down binding Z-score [3]: 0.409
pull-down binding Z-score (TO-N3 (biotin conjugate)): -0.143
pull-down binding Z-score [4]: -0.133

CCUCCCCCAGUGCCAGG [hsa-mir-3196]
pull-down binding Z-score [1]: 0.352
pull-down binding Z-score [2]: -0.253
pull-down binding Z-score [3]: -0.591
pull-down binding Z-score (TO-N3 (biotin conjugate)): -0.106
pull-down binding Z-score [4]: -0.331

CCUCCCUAGGGGAUCCCAGGUAGG [hsa-mir-4688]
pull-down binding Z-score [1]: -0.0612
pull-down binding Z-score [2]: 0.295
pull-down binding Z-score [3]: -0.606
pull-down binding Z-score (TO-N3 (biotin conjugate)): 0.0963
pull-down binding Z-score [4]: -0.168

CCUCGAAGCUGCCUUUAGAAAUGAGG [hsa-mir-4496]
pull-down binding Z-score [1]: 0.142
pull-down binding Z-score [2]: -0.0169
pull-down binding Z-score [3]: -0.107
pull-down binding Z-score (TO-N3 (biotin conjugate)): 0.176
pull-down binding Z-score [4]: -0.192

CCUCUCGGGAACUACAAGUCCCAGGGGG [hsa-mir-2861]
pull-down binding Z-score [1]: -0.455
pull-down binding Z-score [2]: -0.694
pull-down binding Z-score [3]: 0.879
pull-down binding Z-score (TO-N3 (biotin conjugate)): -0.794
pull-down binding Z-score [4]: -0.409
